Test results from patent publication US20190263922A1 (TIGA TX, published 2019).
Ends that are not written are not given here.

Experiments:
human CD20 [1] = target: T1, human CD20 (human, UniProt P11836 1-297); assay: FACS on Daudi cells
T1 construct: whole, on cells; Always presented on cells; also called MS4A1; CD20 WT
T1 sequence (looked up): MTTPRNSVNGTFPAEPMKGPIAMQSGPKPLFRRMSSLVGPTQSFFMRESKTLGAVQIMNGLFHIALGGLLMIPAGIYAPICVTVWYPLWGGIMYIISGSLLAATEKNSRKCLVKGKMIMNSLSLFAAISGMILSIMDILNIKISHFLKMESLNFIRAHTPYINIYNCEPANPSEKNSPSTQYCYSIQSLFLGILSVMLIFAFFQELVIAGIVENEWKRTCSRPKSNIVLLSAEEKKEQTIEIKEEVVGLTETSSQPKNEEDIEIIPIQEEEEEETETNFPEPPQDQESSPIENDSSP

CD20 single mutant A170P = target: T2, CD20 single mutant A170P (human, UniProt P11836 1-297); assay: FACS, HEK293F cells transfected with CD20 A170P
T2 construct: whole, on cells
T2 sequence (looked up): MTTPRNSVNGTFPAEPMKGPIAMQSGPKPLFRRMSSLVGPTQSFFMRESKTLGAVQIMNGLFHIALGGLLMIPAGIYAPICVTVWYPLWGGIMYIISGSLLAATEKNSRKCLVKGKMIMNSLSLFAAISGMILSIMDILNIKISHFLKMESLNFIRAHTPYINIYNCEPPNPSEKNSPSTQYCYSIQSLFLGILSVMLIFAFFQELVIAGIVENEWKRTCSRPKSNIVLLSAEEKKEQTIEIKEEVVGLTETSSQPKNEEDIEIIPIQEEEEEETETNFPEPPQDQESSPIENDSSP
Experimental: (§4) One day post-transfection, cells were harvested, washed in FACS buffer and stained for 30 min with 5 μg/mL CD20 mAbs on ice. mAb binding was detected with a goat-anti-hIgG-APC or goat-anti-mIgG-APC Ab (Jackson). Cells were measured on a FACS Canto II (BD).

[2] = target: T3, CD20 mutant T159K/N163D/N166D (human, UniProt P11836 1-297); assay: FACS, HEK293F cells transfected with CD20 T159K/N163D/N166D, 5 ug/mL mAb
T3 construct: whole, on cells; also called KDD
T3 sequence (looked up): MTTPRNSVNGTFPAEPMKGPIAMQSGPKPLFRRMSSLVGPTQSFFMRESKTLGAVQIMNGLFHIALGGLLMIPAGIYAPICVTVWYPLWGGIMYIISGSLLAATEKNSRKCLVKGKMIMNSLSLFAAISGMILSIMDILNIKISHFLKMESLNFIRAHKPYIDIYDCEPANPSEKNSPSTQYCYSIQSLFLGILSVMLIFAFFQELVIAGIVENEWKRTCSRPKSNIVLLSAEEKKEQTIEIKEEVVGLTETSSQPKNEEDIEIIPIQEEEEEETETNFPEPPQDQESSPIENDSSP
Experimental: as §4
Therefore, we first performed a rough epitope mapping experiment with two CD20 mutants, with amino acids mutated in either the small (T159K/N163D/N166D) or larger (A170S/P172S) loop of CD20 (FIG. 4B).

[3] = target: T4, circular peptide YNCEPANPSEKNSPSTQYCYS (human, circular (cysteine-based loop, Pepscan technology); covalently linked to the plate); assay: PepScan ELISA, 1 ug/mL mAb on plate-linked peptide
T4 peptide: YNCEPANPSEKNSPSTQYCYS
Experimental: (§1) Recognition of peptides by the CD20 mAb was assessed in a PepScan-based ELISA as previously described. ⁽²⁰⁾ Briefly, 1 μg/mL mAb was added to plates with covalently linked peptides and incubated overnight at 4° C. After extensive washing, bound mAb was detected with a HRP-linked rabbit-anti-mIgG (DakoCytomation) for 1 h at 25° C. Unbound detection Ab was washed away. Plates were developed using ABTS substrate and color development quantified using a CCD camera and an image-processing system.

[4] = target: T5, linear peptide NSPSTQYGPANPSEK (human, also: covalently linked to the plate); assay: PepScan ELISA, 1 ug/mL mAb on plate-linked peptide
T5 peptide: NSPSTQYGPANPSEK
Experimental: as §1

human CD20 [5] = target: T1, human CD20; assay: LigandTracer Green, 10 nM FITC-labeled mAb on SKBR3-CD20 cells, OneToOne fit, non-competitive dissociation
Experimental: (§2) Kinetics analysis of interactions between the mAbs and CD20 was performed by using the LigandTracer green Technology (Ridgeview Instruments AB). 10⁶ SKBR3-CD20 cells were seeded on one side of a 10 cm culture dish (Greiner) as target cell area and association of 10 nM FITC-labeled CD20 mAb was measured. For non-competitive or competitive dissociation, labeled mAb solution was replaced by RPMI culture medium or 100 nM unlabeled mAb of the same clone, respectively. Analysis was performed using an OneToOne fitting model in TraceDrawer (Ridgeview Instruments AB).
(§3) A slow Ab off-rate might favor the formation of Ab-Clq complexes, the first component of the classical complement pathway. […] To characterize interaction kinetics and affinity of mAbs, we used the LigandTracer technology to record real-time binding and dissociation of Abs to cellular receptors.

human CD20 [6] = target: T1, human CD20; assay: LigandTracer Green, 10 nM FITC-labeled mAb on SKBR3-CD20 cells, OneToOne fit, competitive dissociation (100 nM unlabeled mAb of the same clone)
Experimental: as §2, §3

| binding result (human CD20 [1]) | binding result (CD20 single mutant A170P) | binding result [2] | binding result [3] | binding result [4] | Kd (human CD20 [5]) [nM] | koff (human CD20 [5]) [s⁻¹] | kon (human CD20 [5]) [M⁻¹ s⁻¹] | Kd (human CD20 [6]) [nM] | koff (human CD20 [6]) [s⁻¹] | kon (human CD20 [6]) [M⁻¹ s⁻¹] | Binder |
| --- | --- | --- | --- | --- | --- | --- | --- | --- | --- | --- | --- |
| binds | binds | binds | – | – | – | – | – | – | – | – | m7 (mIgG2b-CD20 mAb) (antibody, V domains shown, Mouse IgG2b hybridoma mAb) VH: QAYLQQSGAELVRPGASVKMSCKASGYTFASYNMHWIKQTPRQGLEWIAAIYPGNGDTSYNQKFKGKATLTVDKSSSTAYMQLSSLTSEDSAVYFCARTYYYGSSPYWSFDVWGTGTTVTVSS VL: DIQMTQSPASLSASVGETVTVTCGASYNIYGALNWYQRKQGKSPQLLIYGATNLADGMSSRFSGSGSGRQYSLKISSLHPDDVATYYCQNVLSNPPTFGGGTKLEIK |
| – | – | – | binds | binds | 1.05 | 3.91e-05 | 37300 | 2.65 | 6.92e-05 | 26100 | m1 (mIgG2c-CD20 mAb) (antibody, V domains shown, FITC- or Alexa647-labelled in the kinetic assays; label sites not given, Mouse IgG2c hybridoma mAb; FITC- or Alexa647-labeled in the kinetic assays) VH: QAYLQQSGAELVRPGASVKMSCKASGYTFTSYNLHWVKQTPRQGLEWIGAIYPGNGDTSYNQKFKGKATLTVDKSSSTAYMQLSRLTSEDSAVYFCARSNSYGSTYWYFDVWGTGTTVTVSS VL: QIVLSQSPAVLFASPGEKVTMTCRARSSVSYMDWYQQKPRSSPKPWIYATSNLASGVPARFSGSGSGTSYSLTISRVEAEDAATYYCQQWTSNPPTFGSGTKLEIK |
